B1: ADP-ribosylation factor 6 (Homo sapiens), P62330 (parent)
chain: MGKVLSKIFGNKEMRILMLGLDAAGKTTILYKLKLGQSVTTIPTVGFNVETVTYKNVKFNVWDVGGQDKIRPLWRHYYTGTQGLIFVVDCADRDRIDEARQELHRIINDREMRDAIILIFANKQDLPDAMKPHEIQEKLGLTRIRDRNWYVQPSCATSGDGLYEGLTWLTSNYKS
partner: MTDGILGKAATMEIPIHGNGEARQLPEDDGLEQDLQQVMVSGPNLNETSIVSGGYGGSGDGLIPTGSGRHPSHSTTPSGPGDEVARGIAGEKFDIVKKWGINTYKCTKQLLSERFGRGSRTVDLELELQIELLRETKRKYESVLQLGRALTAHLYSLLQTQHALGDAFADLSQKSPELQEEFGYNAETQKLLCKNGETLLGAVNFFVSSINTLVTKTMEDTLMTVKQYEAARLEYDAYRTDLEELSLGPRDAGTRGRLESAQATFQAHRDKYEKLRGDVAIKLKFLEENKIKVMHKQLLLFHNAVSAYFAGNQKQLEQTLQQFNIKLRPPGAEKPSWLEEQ

Variants of: B1
Details: with arfp2_human ARFIP2, P53365

Variant	effect of a mutation on the interaction
T28N	decreasing interaction

— IntAct's records for PubMed 9312003
